These results are taken from PMC5999394, “Design principles of a microtubule polymerase” (eLife, 2018).

Data set [1] concerns the target T1, wild-type yeast αβ-tubulin (unpolymerized) (S. cerevisiae, UniProt P09733 1-447; P02557 1-457).
T1 construct: Tub1p (yeast α-tubulin), S. cerevisiae; Tub2p (yeast β-tubulin), S. cerevisiae; also called WT tubulin; unpolymerized tubulin
Briefly: SEC; gel filtration on Shodex KW-803 in BRB80 (80 mM PIPES pH 6.9, 1 mM MgCl2, 1 mM EGTA) with 50 μM GTP; 1 μM TOG1-tail and 1 μM tubulin, alone or mixed, equilibrated on ice for 20 min. The note with it: both partners purified.

In data set [2] the target is T2, side-blocked yeast αβ-tubulin (β:F281A) (S. cerevisiae, UniProt P09733 1-447; P02557 1-457, F281A).
T2 construct: Tub1p (yeast α-tubulin), S. cerevisiae; Tub2p (yeast β-tubulin), S. cerevisiae; also called Tub2:F281A
The data set is described as above. The note with it: both partners purified.

The target of data set [3] is T3, lateral-interface mutant yeast αβ-tubulin (α:H284A) (S. cerevisiae, UniProt P09733 1-447; P02557 1-457, H284A).
T3 construct: Tub1p (yeast α-tubulin), S. cerevisiae; Tub2p (yeast β-tubulin), S. cerevisiae; also called Tub1-H284A; Tub1:H284A
The description is as above. The note with it: both partners purified.

Data set [4] concerns the target T4, plus-end blocked yeast αβ-tubulin (β:T175R,V179R) (S. cerevisiae, UniProt P09733 1-447; P02557 1-457, T175R | V179R).
T4 construct: Tub1p (yeast α-tubulin), S. cerevisiae; Tub2p (yeast β-tubulin), S. cerevisiae; also called LR1
Kind of data set: AUC; sedimentation velocity, 50,000 rpm, 20°C, absorbance at 229 nm; RB100 (25 mM Tris pH 7.5, 100 mM NaCl, 1 mM MgCl2, 1 mM EGTA) with 20 µM GTP; 0.3 µM tubulin with 0.1-3 µM TOG1-tail; isotherms fitted with a 1:1 effective-particle model. The note with it: both partners purified.

Data set [5] deals with the molecule itself. Briefly: single-molecule photobleaching (TIRF); fluorescence intensity trace of stationary Stu2-eGFP; steps of photobleaching counted.
Data set [6] has as its target T5, wild-type yeast microtubules (polymerized wild-type yeast αβ-tubulin) (S. cerevisiae, UniProt P09733 1-447; P02557 1-457).
T5 construct: Tub1p (yeast α-tubulin), S. cerevisiae; Tub2p (yeast β-tubulin), S. cerevisiae; Polymer of m2; also called microtubule lattice; microtubule end
Briefly: single-molecule TIRF microscopy, residence time on the growing microtubule end; 5 nM Stu2-eGFP variant with 1-1.5 µM unlabeled wild-type yeast tubulin; 100 ms streaming; one-phase exponential fit of the dwell times; 30°C. Conditions: both partners purified.

For data set [7], the target named is T5, wild-type yeast microtubules …. Kind of data set: TIRF microscopy, fluorescence intensity of the Stu2-eGFP spot on the growing microtubule end; end intensity dynamic assay; 5-300 nM Stu2-eGFP (titration, hyperbolic fit; apparent) or 200 nM variant; 0.8 μM wild-type yeast tubulin; 30°C. The note with it: both partners purified.
In data set [8] the target is T6, β:T238A yeast microtubules (polymerized Tub2:T238A αβ-tubulin) (S. cerevisiae, UniProt P09733 1-447; P02557 1-457, T238A).
T6 construct: Tub1p (yeast α-tubulin), S. cerevisiae; Tub2p (yeast β-tubulin), S. cerevisiae; also called β:T238A microtubules; mutant microtubules
Briefly: TIRF microscopy of Stu2-eGFP on dynamic microtubules (kymographs); axoneme-seeded unlabeled dynamic yeast microtubules on the cover slip; Stu2-eGFP variant (100-200 nM) with 0.5-0.8 μM unpolymerized yeast tubulin in imaging buffer (1X PEM, 50 µM GTP, 0.1 mg/mL BSA, antifade); 30°C. The note with it: both partners purified.

Data set [9] addresses T4, plus-end blocked yeast αβ-tubulin …. Kind of data set: TIRF microscopy of Stu2-eGFP on stabilized microtubules; GTPγS-stabilized wild-type yeast microtubules held on the cover slip by His-Tag antibody; 100 nM Stu2-eGFP flowed in without or with 1 μM unpolymerized tubulin (wild type or mutant; mixed on ice for 10 min); imaging buffer; 30°C. The note with it: both partners purified.

Data set [10] addresses T7, minus-end blocked yeast αβ-tubulin (α:T350E) (S. cerevisiae, UniProt P09733 1-447; P02557 1-457, T350E).
T7 construct: Tub1p (yeast α-tubulin), S. cerevisiae; Tub2p (yeast β-tubulin), S. cerevisiae; also called T350E α-tubulin
The data set is described as above. Conditions: both partners purified.

B1: Stu2 TOG1 domain ('TOG1-tail', 1–317) (domain or fragment, S. cerevisiae, UniProt P46675 1-317, looked up)
chain: MSGEEEVDYTTLPLEERLTYKLWKARLEAYKELNQLFRNSVGDISRDDNIQIYWRDPTLFAQYITDSNVVAQEQAIVALNSLIDAFASSSLKNAHNITLISTWTPLLVEKGLTSSRATTKTQSMSCILSLCGLDTSITQSVELVIPFFEKKLPKLIAAAANCVYELMAAFGLTNVNVQTFLPELLKHVPQLAGHGDRNVRSQTMNLIVEIYKVTGNNSDLLEEILFKKLKPIQVKDLHKLFAKVGDEPSSSKMLFEWEKRELEKKRSQEEEARKRKSILSNDEGEYQIDKDGDTLMGMETDMPPSKQQSGVQIDTFS
notes: Stu2 (Stu2p), S. cerevisiae, TOG1 domain with tail, residues 1-317; source: expression and purification previously described (Ayaz et al., 2012, 2014)
In the case of B1, the binding result in [1], in data set [2], in [3] and in data set [4] was “binds” each time.

B2: wild-type Stu2-eGFP (Stu2 residues 1–888, full-length; dimer) (natural protein, S. cerevisiae, UniProt P46675 1-888, looked up)
chain: MSGEEEVDYTTLPLEERLTYKLWKARLEAYKELNQLFRNSVGDISRDDNIQIYWRDPTLFAQYITDSNVVAQEQAIVALNSLIDAFASSSLKNAHNITLISTWTPLLVEKGLTSSRATTKTQSMSCILSLCGLDTSITQSVELVIPFFEKKLPKLIAAAANCVYELMAAFGLTNVNVQTFLPELLKHVPQLAGHGDRNVRSQTMNLIVEIYKVTGNNSDLLEEILFKKLKPIQVKDLHKLFAKVGDEPSSSKMLFEWEKRELEKKRSQEEEARKRKSILSNDEGEYQIDKDGDTLMGMETDMPPSKQQSGVQIDTFSMLPEETILDKLPKDFQERITSSKWKDRVEALEEFWDSVLSQTKKLKSTSQNYSNLLGIYGHIIQKDANIQAVALAAQSVELICDKLKTPGFSKDYVSLVFTPLLDRTKEKKPSVIEAIRKALLTICKYYDPLASSGRNEDMLKDILEHMKHKTPQIRMECTQLFNASMKEEKDGYSTLQRYLKDEVVPIVIQIVNDTQPAIRTIGFESFAILIKIFGMNTFVKTLEHLDNLKRKKIEETVKTLPNFSIASGSTHSTIETNKQTGPMENKFLLKKSSVLPSKRVASSPLRNDNKSKVNPIGSVASASKPSMVAANNKSRVLLTSKSLATPKNVVANSTDKNEKLIEEYKYRLQKLQNDEMIWTKERQSLLEKMNNTENYKIEMIKENEMLREQLKEAQSKLNEKNIQLRSKEIDVNKLSDRVLSLENELRNMEIELDRNKKRNDTNLQSMGTISSYSIPSSTVSSNYGVKSLSSALPFKEEEDVRRKEDVNYERRSSESIGDLPHRVNSLNIRPYRKNGTGVSSVSDDLDIDFNDSFASEESYKRAAAVTSTLKARIEKMKAKSRREGTTRT
notes: Stu2 (Stu2p), S. cerevisiae, residues 1-888; also called Stu2p; WT; source: E. coli Arctic Express, purified (His60 Superflow, Strep-Tactin); not shown: eGFP, C-terminal, kept
Regarding B2, in data set [5], the “stoichiometry N” value was found to be 2. Moreover, the “characteristic residence time on the growing microtubule end” value in data set [6] amounted to 2.2 s. Moreover, in data set [7], the EC50 was found to be 19 nM. Also, the binding result in data set [8], in [9] and in data set [10] was “binds” throughout.
